Results reported in article PMC8495455, “Discovery of a transdermally deliverable pentapeptide for activating AdipoR1 to promote hair growth” (EMBO Molecular Medicine, 2021).
Values joined by “and” are separate entries in the source; they are usually repeats but may differ in a detail not shown here. Identical values can stand only once.

B1: APN: adiponectin protein, positive control (protein, UniProt Q15848 19-244, looked up)
Adiponectin: ETTTQGPGVLLPLPKGACTGWMAGIPGHPGHNGAPGRDGRDGTPGEKGEKGDPGLIGPKGDIGETGVPGAEGPRGFPGIQGRKGEPGEGAYVYRSAFSVGLETYVTIPNMPIRFTKIFYNQQNHYDGSTGKFHCNIPGLYYFAYHITVYMKDVKVSLFKKDKAMLFTYDQYQENNVDQASGSVLLHLEVGDQVWLQVYGEGERNGLYADNDNDSTFTGFLLYHDTN

What was measured:
C57BL/6 (WT) mice [1] = test: Mouse hair cycle modulation, histology and anagen induction score, WT mice; type: in vivo
Excerpt: (§1) First, we topically applied P5 and minoxidil as a positive control (Messenger & Rundegren, [2004]) on wildtype (WT) mouse. […] Overall, the hair cycle score was higher in the P5‐treated mice than vehicle‐treated mice (Fig 4B). […] Collectively, P5 induces anagen hair cycle in vivo.
(§2) Paraffin‐embedded mouse cutaneous back tissue was sectioned (4 μm thickness) and stained with hematoxylin and eosin. For IF staining, human ORS cells cultured in FiTC‐P5, sectioned paraffin‐embedded human HFs (7 μm thickness), and sectioned paraffin‐embedded mouse cutaneous dorsal tissue or human skin tissue (5 μm thickness) were incubated at 4°C overnight with the following primary antibodies diluted in the diluent reagent (Invitrogen): phospho‐AMPK (#2535, 1:100; Cell Signaling), Ki‐67 (#M7240, 1:200; Dako), versican (#ab177480, 1:200; Abcam), or AdipoR1 antibody (#ab126611, 1:200; Abcam). After three washes with PBS, the slides were incubated with the secondary Alexa Fluor 488‐labeled anti‐mouse or rabbit IgG antibody (#ab150077, #ab150113, 1:200; Invitrogen), or Alexa Fluor 594‐labeled anti‐rabbit IgG antibody (#a11012, 1:200; Invitrogen) at 25°C for 1 h. Nuclei were counterstained with 4′,6‐diamidino‐2‐phenylindole (DAPI; #D1306, 1:1,000; Invitrogen). Microscopic observations were performed with a Nikon Eclipse Ci‐L microscope (Nikon). IF intensity was observed and recorded with a Nikon Eclipse Ni‐E fluorescence microscope (Nikon).
(§3) For the hair cycle modulation experiment, Adipoq ^−/− (stock #008195; JAX) (Ma et al, [2002]), Adipor1 ^−/− (Yamauchi et al, [2007]; Okada‐Iwabu et al, [2013]), or C57BL/6 (KOATECH) female mice was used (Müller‐Röver et al, [2001]). They were housed (up to four animals per cage; 23 ± 2°C, 8:00–20:00, 12 h/12 h light/dark cycle). Mice were fed a standard chow diet and provided food and water ad libitum. Mice were randomly allocated and shaved dorsally at 7.5 weeks of age. Only mice in telogen were included for the further experiments (Müller‐Röver et al, [2001]). From 8 weeks of age, the shaved dorsal area was treated with vehicle control (ethanol and polyethylene glycol, 30% and 70% v/v), P5 (0.1 mM), or minoxidil (3%) every day. The mouse hair growth score (a value from 0 to 100 based on the skin pigmentation and hair shaft density) was monitored and documented at designated days with the experimenters being blind to the conditions, following a previous study (Chai et al, [2019]). A higher score corresponds to a transition from telogen to anagen. On day 35, we obtained dorsal cutaneous tissue for histological analysis: anagen induction scores (calculated using an assigned arbitrary score; telogen = 1, anagen I–VI = 2–7) (Müller‐Röver et al, [2001]).

C57BL/6 (WT) mice [2] = test: Mouse hair cycle modulation, hair cycle score, WT mice; type: in vivo; settings: topical
Excerpt: as §1, §3

[3] = system: AMPK phosphorylation in ORS cells; test: Western blot p-AMPK, ORS cells; type: cell-based, human; settings: P5 0 - 50 μM, APN 2.5 μg/ml
Excerpt: (§4) Following the confirmation of the molecular interaction between AdipoR1 and P5, we evaluated the activation of the intracellular signaling pathway by P5. We investigated whether APN treatment on ORS and DP cells could activate AMPK or ERK signaling pathways, which are previously known to be downstream effectors of AdipoR1 (Mao et al, [2006]; Deepa & Dong, [2009]; Shibata et al, [2012]). […] Next, for determination of whether both P5 and APN mediates the phosphorylation of AMPK through AdipoR1 in ORS and DP cells, the cells were transfected with AdipoR1 siRNA (Appendix Fig S1). […] Collectively, P5 activates AMPK signaling pathway through AdipoR1 in ORS and DP cells in vitro.
(§5) Human ORS and DP cells or skin tissue were lysed (RIPA lysis buffer; #20‐188; Merck Millipore). The obtained protein was then separated by 8% SDS–PAGE and transferred to a polyvinylidene fluoride membrane (Amersham). The protein transferred membranes were incubated overnight with the specific antibodies. […] Antibody‐antigen complexes detected by enhanced chemiluminescent substrate (Thermo Fisher) were captured and quantified by Amersham imager 680 systems (GE Healthcare).

[4] = system: AMPK phosphorylation through AdipoR1 in ORS cells; test: Western blot p-AMPK in AdipoR1 siRNA-transfected ORS cells; type: cell-based, human
Excerpt: as §4
(§6) All transfections were performed using Lipofectamine 2000 following the manufacturer’s instructions (#11668019; Thermo Fisher). Human DP and ORS cells were cultured without antibiotics until reaching 50% confluency. AdipoR1 or scrambled siRNA (Bioneer) was used. The culture medium was changed 6 h after transfection, and the cells were incubated for another 24 h before subsequent analyses.
(§7) Human ORS and DP cells or skin tissue were lysed (RIPA lysis buffer; #20‐188; Merck Millipore). […] Antibody‐antigen complexes detected by enhanced chemiluminescent substrate (Thermo Fisher) were captured and quantified by Amersham imager 680 systems (GE Healthcare).

human scalp HFs = settings: ref Won et al, [2012]; cited from earlier work
Excerpt: However, it is not well understood about the underlying action mechanism of APN on hair growth promotion and how to utilize this endogenous protein as clinically applicable drug forms (Otvos, [2019]).

[5] = system: AMPK phosphorylation in DP cells; test: Western blot p-AMPK, DP cells; type: cell-based, human; settings: P5 0 - 50 μM, APN 2.5 μg/ml
Excerpt: as §4, §5

[6] = system: ERK phosphorylation in ORS cells; test: Western blot p-ERK1/2, ORS cells; type: cell-based, human
Excerpt: as §4, §5

[7] = system: matrix cells of human HF bulbs; test: IF staining Ki-67 of ex vivo cultured HF bulb; type: cell-based; settings: APN 10μg/ml, ex vivo cultured HF bulb; individual HFs, n = 8
Excerpt: We next investigated whether P5 can reproduce the effects of APN on hair growth promotion ex vivo (Won et al, [2012]) using ex vivo human HF organ culture model. […] The Ki‐67‐positive cell portion of the matrix area in the P5‐treated HFs was higher than that in the vehicle‐treated group (Fig 3E).
as §2

[8] = system: ERK phosphorylation in DP cells; test: Western blot p-ERK1/2, DP cells; type: cell-based, human
Excerpt: as §4, §5

[9] = system: AMPK phosphorylation through AdipoR1 in DP cells; test: Western blot p-AMPK in AdipoR1 siRNA-transfected DP cells; type: cell-based, human
Excerpt: as §4, §6, §7

Molecule	Histological examination of HFs (C57BL/6 (WT) mice [1]; H&E)	Anagen induction scores vs vehicle (C57BL/6 (WT) mice [1]; One-way ANOVA with Tukey's test)	Gross morphology of dorsum (C57BL/6 (WT) mice [2]; day 14)	Gross morphology of dorsum (C57BL/6 (WT) mice [2]; day 35)	Phosphorylation of AMPK, ORS cells [3]	p-AMPK intensity after AdipoR1 siRNA transfection, ORS cells [4]	Hair growth ex vivo (human scalp HFs)	Phosphorylation of AMPK, DP cells [5]	Phosphorylation of ERK, ORS cells [6]	Numbers of Ki-67-positive cells normalized to DAPI-stained cells [7]	Phosphorylation of ERK, DP cells [8]	p-AMPK intensity after AdipoR1 siRNA transfection, DP cells [9]
Nc1cc(N2CCCCC2)nc(N)[n+]1[O-] [minoxidil, reference compound]	anagen HFs were noticeable	significantly higher	obvious pigmentation and hair	manifested a black hair coat								
B1					phosphorylation of AMPK was observed	intensity was reduced	promotes hair growth ex vivo effectively	phosphorylation of AMPK was observed	no effect on the phosphorylation of ERK	0.29 and 0.31 and 0.23 and 0.25 and 0.22 and 0.21 and 0.35 and 0.28	no effect on the phosphorylation of ERK	intensity was reduced
